Results published in PMC4428356, “Endophilin-A1 BAR domain interaction with arachidonyl CoA” (Frontiers in Molecular Biosciences, 2014).
Several values for one entry are separate records, joined by “and”; a condition that tells them apart may be missing. Equal values may be shown once.

Legend:
[1] = target: the molecule itself; assay: SAXS; free endophilin-A1-BAR at 2 mg/ml in buffer B (20 mM Bicine pH 9, 100 mM NaCl), 283 K; monodisperse; mass from forward scattering, Porod volume, fit with the crystallographic dimer
[2] = target: the molecule itself; assay: SAXS; free endophilin-A1-BAR at 3, 4 and 6 mg/ml in buffer B (20 mM Bicine pH 9, 100 mM NaCl), 283 K; volume fractions of dimer, tetramer and a putative helical octamer fitted with OLIGOMER

B1: Endophilin-A1-BAR (residues 1-256 of mouse endophilin-A1) (domain or fragment, UniProt Q62420 1-256, looked up)
chain: MSVAGLKKQFHKATQKVSEKVGGAEGTKLDDDFKEMERKVDVTSRAVMEIMTKTIEYLQPNPASRAKLSMINTMSKIRGQEKGPGYPQAEALLAEAMLKFGRELGDDCNFGPALGEVGEAMRELSEVKDSLDMEVKQNFIDPLQNLHDKDLREIQHHLKKLEGRRLDFDYKKKRQGKIPDEELRQALEKFDESKEIAESSMFNLLEMDIEQVSQLSALVQAQLEYHKQAVQILQQVTVRLEERIRQASSQPRREYQ
notes: endophilin-A1, mouse, residues 1-256 (BAR domain with the N-terminal amphipathic helix); calculated mass of the monomer 29 kDa; Dimeric at 2 mg/ml, higher oligomers at higher concentrations; also called endophilin-A1 BAR domain; source: E. coli BL21 codon plus, purified (Ni-chelating sepharose, Superdex 200 gel filtration)
stoichiometry N [1]: 2
stoichiometry N [2]: 4 and 8
